One substance from PMC5013695 can be followed below.

For the assay, the target named is 14-3-3β (UniProt Q9CQV8). In words: co-IP with anti-FLAG beads, 14-3-3β blot. To be noted: reference: FLAG-Bmal1 wild type; sites S42.
UniProt Q9CQV8, sequence (Q9CQV8 whole entry, looked up): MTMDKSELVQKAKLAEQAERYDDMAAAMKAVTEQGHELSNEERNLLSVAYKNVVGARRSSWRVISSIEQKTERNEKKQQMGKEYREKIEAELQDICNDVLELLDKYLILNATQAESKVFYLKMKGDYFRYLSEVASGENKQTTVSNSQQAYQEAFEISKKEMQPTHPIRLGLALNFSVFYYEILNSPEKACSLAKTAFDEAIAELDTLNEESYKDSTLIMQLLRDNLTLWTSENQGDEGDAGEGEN

As for “Bmal1 (from UniProt Q9WTL8-4) FLAG-Bmal1 S42A”, the “binding against the reference” value is “weaker”.
